Results as given in patent US20180282401A1 (AXON NEUROSCIENCE, published 2018).

B1: monoclonal antibody DC8E8 (antibody, V domains shown)
VH: QVQLQQSGPELVKPGTSVKMPCKASGYIFTDYVISWVKQRTGQGLEWIGEIFPRSGSTYYNEKFKGKATLTADKSSNTAYMQLSSVTSEDSAVYFCARDYYGTSFAMDYWGQGTSVTVSS
VL: DIVMSQSPSSLAVSAGEKVTMSCKSSQSLLNSRTRKNYLAWYQQKPGQSPKLLIYWASTRESGVPDRFTGSGSGTDFTLTISSVQAEDLAVYYCKQSFYLRTFGGGTKLDIK
notes: also called mAb DC8E8; antibody of hybridoma ATCC PTA-11994

Tests used:
[1] = biological target: B1; experiment: competition ELISA: peptide pre-incubated with DC8E8 (1 µg/ml), then on plates coated with the competitor tauΔ(1-150;392-441)/4R; peptide series 1.25-160 µM in paragraph 380, the concentration of the bars is not given
human tau isoform 2N4R [2] = biological target: T1, human tau isoform 2N4R (human, UniProt P10636 1-758); experiment: SPR (BIACORE3000, CM5), DC8E8 captured by anti-mouse antibody, tau protein injected, 25 °C, PBS-P, two-phase reaction model
T1 construct: also called tau 2N4R; tau441
T1 sequence (P10636 other isoform, or with tags, fused parts or gaps limits assumed): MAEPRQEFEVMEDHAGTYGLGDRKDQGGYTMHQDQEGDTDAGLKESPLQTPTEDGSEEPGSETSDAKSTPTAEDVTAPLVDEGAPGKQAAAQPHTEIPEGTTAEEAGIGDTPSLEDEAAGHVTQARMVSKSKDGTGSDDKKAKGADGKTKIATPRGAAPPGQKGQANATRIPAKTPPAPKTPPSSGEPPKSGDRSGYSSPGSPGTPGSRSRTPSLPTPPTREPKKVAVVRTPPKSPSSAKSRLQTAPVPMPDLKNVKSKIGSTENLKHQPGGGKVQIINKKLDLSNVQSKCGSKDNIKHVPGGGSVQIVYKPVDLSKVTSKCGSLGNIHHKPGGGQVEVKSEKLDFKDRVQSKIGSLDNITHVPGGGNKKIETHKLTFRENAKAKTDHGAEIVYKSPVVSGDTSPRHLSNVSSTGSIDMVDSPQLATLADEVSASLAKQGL
Description: (§1) A BIACORE3000 instrument with a CM5 sensor chip (Biacore AB, Uppsala) was used for the SPR assays. […] These experiments were done at 25° C. in PBS pH 7.4 with 0.005% of P20 (PBS-P) as the running buffer.
(§2) Kinetic rate constants were approximated globally, maximal responses were fitted locally, and the bulk response was set to zero.

tauΔ(1-150;392-441)/4R [3] = biological target: T2, tauΔ(1-150;392-441)/4R (human, UniProt P10636 468-708); experiment: as above
T2 construct: Recombinant truncated human tau, numbered on 2N4R; also the transgene of SHR72 rats; also called misdisordered tau; pathological tau
T2 sequence (P10636 other isoform, or with tags, fused parts or gaps mutant limits assumed): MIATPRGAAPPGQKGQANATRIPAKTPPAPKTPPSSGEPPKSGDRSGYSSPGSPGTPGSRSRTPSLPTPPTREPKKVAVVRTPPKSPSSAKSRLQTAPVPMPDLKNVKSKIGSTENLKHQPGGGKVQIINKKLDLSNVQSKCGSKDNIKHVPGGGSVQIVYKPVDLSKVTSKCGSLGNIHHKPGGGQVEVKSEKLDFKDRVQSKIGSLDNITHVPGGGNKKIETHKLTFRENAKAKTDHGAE
Description: as §1, §2

tauΔ(1-150;392-441)/3R [4] = biological target: T3, tauΔ(1-150;392-441)/3R (human, UniProt P10636 468-708); experiment: as above
T3 construct: Also the transgene of SHR24 rats; also called misdisordered three repeat tau; tau type IIB (151-391/R3)
T3 sequence (P10636 other isoform, or with tags, fused parts or gaps mutant): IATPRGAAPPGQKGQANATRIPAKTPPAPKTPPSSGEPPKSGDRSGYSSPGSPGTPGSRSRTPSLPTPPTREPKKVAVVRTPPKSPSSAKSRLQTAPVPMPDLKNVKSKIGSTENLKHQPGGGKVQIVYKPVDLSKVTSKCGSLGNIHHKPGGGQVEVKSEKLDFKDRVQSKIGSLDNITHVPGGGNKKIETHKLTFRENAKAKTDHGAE
Description: as §1, §2

human tau isoform 2N3R [5] = biological target: T4, human tau isoform 2N3R (human, UniProt P10636 2-758); experiment: as above
T4 construct: also called tau 2N3R; tau39
T4 sequence (P10636 other isoform, or with tags, fused parts or gaps limits assumed): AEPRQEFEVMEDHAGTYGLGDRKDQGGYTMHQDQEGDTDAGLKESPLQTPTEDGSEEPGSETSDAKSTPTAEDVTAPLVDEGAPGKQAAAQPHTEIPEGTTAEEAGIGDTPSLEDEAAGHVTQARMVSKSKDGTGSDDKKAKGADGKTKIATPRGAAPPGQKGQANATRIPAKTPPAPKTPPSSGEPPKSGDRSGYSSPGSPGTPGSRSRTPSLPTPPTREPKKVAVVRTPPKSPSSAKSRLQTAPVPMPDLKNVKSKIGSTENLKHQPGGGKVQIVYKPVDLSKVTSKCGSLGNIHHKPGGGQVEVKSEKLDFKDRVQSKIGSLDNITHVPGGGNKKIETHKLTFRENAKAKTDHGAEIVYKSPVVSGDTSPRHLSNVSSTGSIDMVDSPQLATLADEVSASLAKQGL
Description: as §1, §2

human tau isoform 2N4R [6] = biological target: T1, human tau isoform 2N4R; experiment: as above; remark: listed apart in the source
Description: as §1, §2

tauΔ(1-150;392-441)/4R [7] = biological target: T2, tauΔ(1-150;392-441)/4R; experiment: as above; remark: listed apart in the source
Description: as §1, §2

259-288/4R = biological target: T5, 259-288/4R; experiment: ELISA, synthetic peptide coated (5 µg/ml), DC8E8 hybridoma culture supernate, anti-mouse Ig-HRP, absorbance 492 nm
T5 peptide: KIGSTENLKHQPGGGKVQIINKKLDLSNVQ
Description: (§3) Microtiter plates were coated overnight at 37° C. with either recombinant tau proteins or with tau peptides (5 μg/ml in PBS, 50 μl/well). […] Bound monoclonal antibody was detected with sheep anti-mouse Ig HRP-conjugated (DAKO). The reaction was developed with orthophenylenediamine solution as a peroxidase substrate and stopped with 50 μl of 2 M H₂SO₄. Absorbance was measured at 492 nm using a Multiscan MCC/340 ELISA reader (Labsystems). Readouts with an absorbance value of at least twice the value of the negative controls (PBS) were considered positive.

291-320/4R = biological target: T6, 291-320/4R; experiment: as above
T6 peptide: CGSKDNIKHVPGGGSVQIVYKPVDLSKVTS
Description: as §3

259-288/3R = biological target: T7, 259-288/3R (not fully specified); experiment: as above
T7 peptide: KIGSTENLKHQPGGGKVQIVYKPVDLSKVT
Description: as §3

281-305/4R = biological target: T8, 281-305/4R; experiment: as above
T8 peptide: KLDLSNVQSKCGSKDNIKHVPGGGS
Description: as §3

264-293/3R = biological target: T9, 264-293/3R; experiment: as above
T9 peptide: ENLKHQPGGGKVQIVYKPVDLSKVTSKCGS
Description: as §3

282-311/4R = biological target: T10, 282-311/4R; experiment: as above
T10 peptide: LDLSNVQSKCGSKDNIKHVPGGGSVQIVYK
Description: as §3

264-293/4R = biological target: T11, 264-293/4R; experiment: as above
T11 peptide: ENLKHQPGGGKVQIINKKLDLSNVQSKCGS
Description: as §3

314-342/R4 = biological target: T12, 314-342/R4; experiment: as above
T12 peptide: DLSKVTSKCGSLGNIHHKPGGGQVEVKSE
Description: as §3

275-304/4R = experiment: as above
Description: as §3

256-285/3R = biological target: T13, 256-285/3R (not fully specified); experiment: as above
T13 peptide: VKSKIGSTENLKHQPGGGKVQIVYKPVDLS
Description: as §3

256-285/4R = biological target: T14, 256-285/4R; experiment: as above
T14 peptide: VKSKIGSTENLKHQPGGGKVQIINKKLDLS
Description: as §3

tauΔ(1-150;392-441)/3R [8] = biological target: T3, tauΔ(1-150;392-441)/3R; experiment: SPR (BIACORE3000, CM5), DC8E8 captured by anti-mouse antibody, tau protein injected, 25 °C, PBS-P, two-phase reaction model; remark: listed apart in the source
Description: as §1, §2

human tau isoform 2N3R [9] = biological target: T4, human tau isoform 2N3R; experiment: as above; remark: listed apart in the source
Description: as §1, §2

human tau isoform 2N4R [10] = biological target: T1, human tau isoform 2N4R; experiment: SPR (Biacore 3000, CM5), His-tagged scDC8E8v captured by anti-His antibody (60 RU), tau protein injected at 100 µl/min, 25 °C, 1:1 model
tauΔ(1-150;392-441)/4R [11] = biological target: T2, tauΔ(1-150;392-441)/4R; experiment: as above
[12] = biological target: B1; experiment: competition ELISA: peptide pre-incubated with DC8E8, binding to plate-coated tauΔ(1-150;392-441)4R measured
Description: The coated ELISA plates were washed 4 times with PBS/Tween 20 (phosphate-buffered saline supplemented with 0.05% v/v Tween 20), and blocked with PBS/Tween 20 for 2 h at 25° C. Each of the peptides was separately dissolved in PBS at the final concentration of 5 mM. […] The antibody/peptide mixtures were incubated for 1 hr at 25° C. on a rotating platform set to 250 rpm. One hundred microliters of the antibody/peptide mixtures were then transferred into the prepared ELISA plates and incubated for 1 hr at 25° C. on a rotating platform set to 250 rpm. The ELISA plates were washed 4× times with PBS/Tween 20. The ELISA plates were then incubated with 100 μl of Polyclonal Goat Anti-Mouse Immunoglobulins/HRP (Dako, #P0447) diluted 1:4 000 in PBS/Tween 20 and incubated for 1 hr at 25° C. on a rotating platform set to 250 rpm. The ELISA plates were washed 4× times with PBS/Tween20. […] The developed signal was measured by reading at 490 nm (e.g. using the Victor Multilabel Counter (Wallac).

## DNIKHVPGGGS (check the listing) [tau peptide 295-DNIKHVPGGGS-305 (SEQ ID NO: 171)]
[1]
  binding result: binds

## B1
Human tau isoform 2N4R [2]
  koff: 0.04 s⁻¹
  kon: 460000 M⁻¹ s⁻¹
tauΔ(1-150;392-441)/4R [3]
  koff: 0.04 s⁻¹
  kon: 2.6e+06 M⁻¹ s⁻¹
tauΔ(1-150;392-441)/3R [4]
  koff: 0.5 s⁻¹
  kon: 490000 M⁻¹ s⁻¹
Human tau isoform 2N3R [5]
  koff: 0.5 s⁻¹
  kon: 140000 M⁻¹ s⁻¹
Human tau isoform 2N4R [6]
  Ka: 1.1e+07 M⁻¹
tauΔ(1-150;392-441)/4R [7]
  Ka: 7.3e+07 M⁻¹
259-288/4R
  binding result: binds
291-320/4R
  binding result: binds
259-288/3R
  binding result: binds
281-305/4R
  binding result: binds
264-293/3R
  binding result: binds
282-311/4R
  binding result: binds
264-293/4R
  binding result: binds
314-342/R4
  binding result: binds
275-304/4R
  binding result: binds
256-285/3R
  binding result: binds
256-285/4R
  binding result: binds
tauΔ(1-150;392-441)/3R [8]
  Ka: 1.1e+06 M⁻¹
Human tau isoform 2N3R [9]
  Ka: 290000 M⁻¹

B2: recombinant scFv fragment of monoclonal antibody DC8E8 (scDC8E8v) (scFv, V domains shown)
VH: QVQLQQSGPELVKPGTSVKMPCKASGYIFTDYVISWVKQRTGQGLEWIGEIFPRSGSTYYNEKFKGKATLTADKSSNTAYMQLSSVTSEDSAVYFCARDYYGTSFAMDYWGQGTSVTVSS
VL: DIVMSQSPSSLAVSAGEKVTMSCKSSQSLLNSRTRKNYLAWYQQKPGQSPKLLIYWASTRESGVPDRFTGSGSGTDFTLTISSVQAEDLAVYYCKQSFYLRTFGGGTKLDIK
Human tau isoform 2N4R [10]
  Ka: 270000 M⁻¹
  koff: 0.2 s⁻¹
  kon: 57000 M⁻¹ s⁻¹
tauΔ(1-150;392-441)/4R [11]
  Ka: 8.1e+06 M⁻¹
  koff: 0.02 s⁻¹
  kon: 180000 M⁻¹ s⁻¹

## SVFQHLPGGGSC (Designed peptide keeping HxPGGG) [designer therapeutic epitope 2 SVFQHLPGGGSC (SEQ ID NO: 251)]
[12]
  IC50 (read off the curve): ~0.03 µM

## GWSIHSPGGGSC (Designed peptide keeping HxPGGG) [designer therapeutic epitope 1 GWSIHSPGGGSC (SEQ ID NO: 250)]
[12]
  IC50 (read off the curve): 2 to 3 µM
